Measurements from patent publication US20050287148A1.
Values belong to the molecule of their own block, whether it stands above or below them.

How the values were obtained:
[1] = molecular target: the best Ab2; assay: unlabeled 14G2a competing with plate-bound 14G2a for 125I-labeled Ab2
[2] = molecular target: monoclonal anti-GD2 antibody 14G2a; assay: competition assay, Ab2 against 14G2a binding to GD2-expressing M21/P6 cells
[3] = molecular target: monoclonal anti-GD2 antibody 14G2a; assay: competition RIA, Ab2 mixed with 125I-14G2a, M21/P6 cell monolayer
[4] = molecular target: monoclonal anti-GD2 antibody 14G2a; assay: competition RIA, 5 µl Ab2 hybridoma culture supernatant, 125I-14G2a on GD2-positive M21/P6 cells

% inhibition [1]: > 90%
Molecule: monoclonal anti-GD2 antibody 14G2a

% inhibition of binding of 14G2a to M21/P6 cells [2]: > 75%
lowest amount that inhibits 14G2a binding to GD2 expressing cells [3]: 25 ng
% inhibition of binding of radiolabeled 14G2a to M21/P6 cells [4]: > 70%
B1: monoclonal anti-idiotype antibody 1A7 (antibody, V domains shown)
VH: QVQVKESGPFLVPPSQSLSITCTVSGFSLTTYGVSWIRQPPGKGLEWLGAIWGDGTTNYHSALISRLSISKDNSKSQVFLKLNSLQTDDTATYYCAKLGNYDALDYWGQGTSVTVSS
VL: DVFMTQTPLSLPVSLGDQASISCRSSQSIVHSNGNTYLEWYLQKPGQSPNLLIYFVSNRFSGVPDRFSGSGSGTDFTLKISRVEAEDLGVYYCFQGSHVPWTFGGGTKLEIKR
